Data published in US7429474B2, “2-O sulfatase compositions and methods of analyzing therewith” (Massachusetts Institute of Technology, priority 2003, dated 2008).
“Also recorded” adds a separate entry of the source.

Key:
2-O sulfatase [1] = experiment: effect of ionic strength, metal ions, EDTA, buffers and cysteine-reactive agents on 2-O sulfatase activity; type: biochemical, F. heparinum; conditions: for effect of additive on enzyme activity: EDTA up to 1 mM, CaCl2, MgCl2, MnCl2 up to 10 mM, DTNB, DTT, 50 mM phosphate buffer pH 6.5
Procedure: For pilot experiments measuring the relative effect of ionic strength on 2-O sulfatase activity, the NaCl concentration was varied from 0.05 to 1 M in 50 mM MES buffer (pH 6.5) that included 500 μM of the disulfated disaccharide ΔU2SHNS,6S and 50 nM enzyme. The effect of pH on sulfatase activity was assessed as a function of catalytic efficiency by measuring kinetic parameters in the following two overlapping pH buffer systems ranging from 5.0 to 8.0: 50 mM MES at pH 5.0, 5.5, 6.5, and 7.0; 50 mM MOPS at pH 6.5, 7.0, 7.5 and 8.0. Assays included 25 nM enzyme, 50 mM NaCl and varying concentrations of the disulfated disaccharide substrate ΔU2SHNS. Km and kcat values were extrapolated from Vo vs. [S] curves fit to the Michaelis-Menten equation by a non-linear least squares regression and the relative kcat/Km ratios plotted as a function of buffer pH. […] Relative activities were measured at a single saturating substrate concentration (4 mM) using ΔU2SHNS.
We also examined 2-O sulfatase activity relative to ionic composition.

[2] = biological target: T1, 2-O sulfatase (2-O ΔN^1-24) (Pedobacter heparinus, UniProt C6Y1N2); experiment: 2-O sulfatase assay and disaccharide substrate kinetics by capillary electrophoresis; type: biochemical, F. heparinum
Procedure: (§1) 2-O sulfatase assay and determination of biochemical reaction conditions—2-O sulfatase activity was measured using the unsaturated heparin trisulfated disaccharide ΔU2SHNS,6S or the disulfated disaccharide ΔU2SHNS as well as the disulfated disaccharide ΔUHNS,6S lacking a sulfate at the 2-OH position. Standard reactions included 50 mM imidazole, pH 6.5, 50 mM NaCl, 500 μM disaccharide, and 25 nM of enzyme (2-O ΔN^1-24) in a 20 μL reaction volume. The reaction was carried out for 30 seconds at 30° C. Prior to its addition, the enzyme was serially diluted to 250 nM in ice cold 1X imidazole buffer. The assay was initiated by the addition of 2 μL of this 10 X enzyme stock to 18 μL of reaction mixture. The enzyme was inactivated by heating at 95° C. 11 for five minutes in pre-heated 0.5 mL eppendorf tubes. Desulfation at the 2-OH position of the disaccharide was measured by capillary electrophoresis. Resolution of substrate and product were achieved under standard conditions described for HSGAG compositional analyses (Rhomberg, A. J., Ernst, S., Sasisekharan, R., and Biemann, K. (1998) Proc Natl Acad Sci USA 95(8), 4176-81). […] For the detection of mono- and di-sulfated disaccharide products, total electrophoresis time was 20 minutes. Each unsaturated disaccharide peak was detected by UV absorption at 232 nm.
(§2) Substrate specificity and kinetics experiments using different disaccharide substrates—For substrate specificity experiments, the following heparin disaccharide substrates were used: ΔU2SHNAc, ΔU2SHNAc,6S, ΔU2SHNS, and ΔU2SHNS,6S. In addition, the chondroitin disaccharides ΔU2SGalNAc,4S and ΔU2SGalNAc,6S were also studied. Disaccharide concentrations for each respective substrate were varied from 0.1 mM to 4 mM. Initial rates (Vo) were extrapolated from linear activities representing <20% substrate turnover and fit to pseudo first-order kinetics. Standard reactions included 50 mM imidazole, pH 6.5, 50 mM NaCl, 500 μM disaccharide, and 25 nM of enzyme (2-O ΔN^1-24) in a 20 μL reaction volume. The reaction was carried out for 30 seconds at 30° C.

2-O sulfatase [3] = experiment: desulfation of 2-O sulfated chondroitin disaccharides under extended and exhaustive conditions; type: biochemical, F. heparinum; conditions: 4× higher enzyme concentration, 20 minute period
Procedure: Substrate specificity and kinetics experiments using different disaccharide substrates—For substrate specificity experiments, the following heparin disaccharide substrates were used: ΔU2SHNAc, ΔU2SHNAc,6S, ΔU2SHNS, and ΔU2SHNS,6S. In addition, the chondroitin disaccharides ΔU2SGalNAc,4S and ΔU2SGalNAc,6S were also studied. Disaccharide concentrations for each respective substrate were varied from 0.1 mM to 4 mM. Initial rates (Vo) were extrapolated from linear activities representing <20% substrate turnover and fit to pseudo first-order kinetics. Standard reactions included 50 mM imidazole, pH 6.5, 50 mM NaCl, 500 μM disaccharide, and 25 nM of enzyme (2-O ΔN^1-24) in a 20 μL reaction volume. […] Desulfation at the 2-OH position of the disaccharide was measured by capillary electrophoresis. […] Activity was measured as moles of desulfated product formed and was calculated from the measured area of the product peak based on molar conversion factors empirically determined from standard curves. […] Each unsaturated disaccharide peak was detected by UV absorption at 232 nm. All the substrate saturation kinetics were measured under Michaelis-Menten conditions.
To determine whether either or both of these 2-O sulfated chondroitin disaccharides could be quantitatively desulfated under exhaustive conditions, we carried out an 18 hour incubation at 30° C. that included 5 mM of substrate and 5 μM enzyme.

[4] = biological target: T1, 2-O sulfatase (2-O ΔN^1-24); experiment: exolytic desulfation of oligosaccharides by 2-O sulfatase (CE compositional analysis and MALDI-MS); type: biochemical, F. heparinum
Procedure: Heparin compositional analyses by capillary electrophoresis and MALDI-MS—Approximately 10 μg of the AT-10 oligosaccharide were incubated with 100 picomoles of 2-O ΔN^1-24 in a 40 μL reaction volume at 30° C. 15 μL aliquots were removed at 4 hours and 17 hours and heat inactivated at 95° C. The oligosaccharide reaction products (along with 15 μL of a minus sulfatase control) were subjected to an exhaustive heparinase I and III digestion prior to CE-based compositional analysis. Desulfation of the decasaccharide was assayed in parallel by MALDI-MS using established methods (Rhomberg, A. J., Ernst, S., Sasisekharan, R., and Biemann, K. (1998) Proc Natl Acad Sci USA 95(8), 4176-81.).
Exolytic Action of the 2-O sulfatase—We addressed this important question using as a substrate the purified heparin-derived AT-10 decasaccharide ΔU2SHNS,6SI2SHNS,6SI2SHNS,6SIHNAc,6SGHNS,3S,6S. […] The substrate was first exhaustively treated with the 2-O sulfatase. The 2-O desulfated decasaccharide was then subjected to an exhaustive heparinase treatment.

[5] = substrate: CC(=O)N[C@H]1C(O)O[C@H](CO)[C@@H](O[C@@H]2OC(C(=O)O)=C[C@H](O)[C@H]2OS(=O)(=O)O)[C@@H]1O; experiment: 2-O sulfatase assay and disaccharide substrate kinetics by capillary electrophoresis; type: biochemical, F. heparinum; conditions: other: 25 nM 2-O ΔN^1-24, 50 mM imidazole pH 6.5, 50 mM NaCl, 30° C., chondroitin disaccharide approximated from double reciprocal plots
Procedure: as §1, §2

[6] = substrate: O=C(O)C1=C[C@H](O)[C@@H](OS(=O)(=O)O)[C@H](O[C@H]2[C@H](O)[C@@H](NS(=O)(=O)O)C(O)O[C@@H]2CO)O1; experiment: as above; type: biochemical, F. heparinum; conditions: other: 25 nM 2-O ΔN^1-24, 50 mM imidazole pH 6.5, 50 mM NaCl, 30° C., chondroitin disaccharide approximated from double reciprocal plots
Procedure: as §1, §2

[7] = substrate: CC(=O)N[C@H]1C(O)O[C@H](COS(=O)(=O)O)[C@@H](O[C@@H]2OC(C(=O)O)=C[C@H](O)[C@H]2OS(=O)(=O)O)[C@@H]1O; experiment: as above; type: biochemical, F. heparinum; conditions: other: 25 nM 2-O ΔN^1-24, 50 mM imidazole pH 6.5, 50 mM NaCl, 30° C., chondroitin disaccharide approximated from double reciprocal plots
Procedure: as §1, §2

[8] = substrate: O=C(O)C1=C[C@H](O)[C@@H](OS(=O)(=O)O)[C@H](O[C@H]2[C@H](O)[C@@H](NS(=O)(=O)O)C(O)O[C@@H]2COS(=O)(=O)O)O1; experiment: as above; type: biochemical, F. heparinum; conditions: other: 25 nM 2-O ΔN^1-24, 50 mM imidazole pH 6.5, 50 mM NaCl, 30° C., chondroitin disaccharide approximated from double reciprocal plots
Procedure: as §1, §2

[9] = biochemical reaction conditions (pH, ionic strength, temperature) for recombinant 2-O sulfatase; conditions: for activity at outlying pH values of 5 and 8: pH 5.0 and 8.0
Procedure: FIG. 6 provides the in vitro biochemical reaction conditions for the recombinant 2-O sulfatase. Panel (A) illustrates the effect of pH. Sulfatase catalytic efficiency (kcat/Km) was measured as a function of varying pH from 5 to 8 using two overlapping buffers: 50 mM MES (solid circles) and 50 mM MOPS (open circles). Inset: Relative effect of three different assay buffers (each at pH 6.5) on optimal enzyme activity. 1.50 mM MES; 2.50 mM imidazole; 3.50 mM sodium phosphate. Panel (B) illustrates the effect of ionic strength. Shown here is % activity normalized to 50 mM NaCl. Panel (C) illustrates the effect of reaction temperature. Data is normalized to 30° C. activity (100%). The unsaturated disaccharide ΔU2SHNS was used in all three experiments.
For pilot experiments measuring the relative effect of ionic strength on 2-O sulfatase activity, the NaCl concentration was varied from 0.05 to 1 M in 50 mM MES buffer (pH 6.5) that included 500 μM of the disulfated disaccharide ΔU2SHNS,6S and 50 nM enzyme. The effect of pH on sulfatase activity was assessed as a function of catalytic efficiency by measuring kinetic parameters in the following two overlapping pH buffer systems ranging from 5.0 to 8.0: 50 mM MES at pH 5.0, 5.5, 6.5, and 7.0; 50 mM MOPS at pH 6.5, 7.0, 7.5 and 8.0. Assays included 25 nM enzyme, 50 mM NaCl and varying concentrations of the disulfated disaccharide substrate ΔU2SHNS. Km and kcat values were extrapolated from Vo vs. [S] curves fit to the Michaelis-Menten equation by a non-linear least squares regression and the relative kcat/Km ratios plotted as a function of buffer pH. Based on this profile, relative enzyme activity was also measured in four different buffers (MES, imidazole, ADA, and sodium phosphate) each present as a 50 mM concentration at pH 6.5. Relative activities were measured at a single saturating substrate concentration (4 mM) using ΔU2SHNS.
These parameters included pH, temperature, ionic strength, and possible divalent metal ion dependency.
37° C. was the default temperature at which all of the preliminary biochemical experiments were conducted. We measured both relative enzyme activity and stability as a function of varying reaction temperature (FIG. 6, Paenl (C)). The 2-O sulfatase was active over a fairly broad temperature range (25° C. to 37° C.), with optimal activity occurring at 30° C. Enzyme activity was compromised at 42° C. Enzyme stability at this temperature was likewise affected as assessed in pre-incubation experiments conducted at varying temperatures (30° C.→42° C.) prior to measuring 2-O sulfatase activity at 30° C.

[10] = −85° C., 10% glycerol

Molecule: O=C(O)c1cc(SSc2ccc([N+](=O)[O-])c(C(=O)O)c2)ccc1[N+](=O)[O-] [DTNB]
- effect of additive on enzyme activity (2-O sulfatase [1]): not inhibited

Molecule: CC(=O)N[C@H]1C(O)O[C@H](COS(=O)(=O)O)[C@H](O)[C@@H]1O[C@@H]1OC(C(=O)O)=C[C@H](O)[C@H]1OS(=O)(=O)O (some centres unmarked) [ΔU2SGalNac.6S]
- Km ([2]; 25 nM 2-O ΔN^1-24, 50 mM imidazole pH 6.5, 50 mM NaCl, 30° C., chondroitin disaccharide approximated from double reciprocal plots): > 10000 µM
- kcat ([2]; 25 nM 2-O ΔN^1-24, 50 mM imidazole pH 6.5, 50 mM NaCl, 30° C., substrate 0.1-4 mM, chondroitin disaccharide approximated from double reciprocal plots): <100 s⁻¹
- hydrolysis under the standard kinetic conditions ([2]; same kinetic conditions as heparin disaccharides): albeit neglibly, hydrolyzed; also recorded: only neglibly hydrolyzed
- substrate desulfated (2-O sulfatase [3]): approximately 40%

Molecule: [Ca+2].[Cl-].[Cl-] [CaCl2]
- effect of additive on enzyme activity (2-O sulfatase [1]): no substantive effect

Molecule: CC(=O)NC1C(OC2C(C(=O)O)OC(OC3C(COS(=O)(=O)O)OC(O)C(NS(=O)(=O)O)C3OS(=O)(=O)O)C(O)C2O)OC(COS(=O)(=O)O)C(OC2OC(C(=O)O)C(OC3OC(COS(=O)(=O)O)C(OC4OC(C(=O)O)C(OC5OC(COS(=O)(=O)O)C(OC6OC(C(=O)O)C(OC7OC(COS(=O)(=O)O)C(OC8OC(C(=O)O)=CC(O)C8OS(=O)(=O)O)C(O)C7NS(=O)(=O)O)C(O)C6OS(=O)(=O)O)C(O)C5NS(=O)(=O)O)C(O)C4OS(=O)(=O)O)C(O)C3NS(=O)(=O)O)C(O)C2O)C1O [AT-10, ΔU2SHNS,6SI2SHNS,6SI2SHNS,6SIHNAc,6SGHNS,3S,6S]
- disappearance of disaccharide ΔU2SHNS,6S in compositional analysis ([4]; 2-O sulfatase then exhaustive heparinase treatment, CE): by only one-third
- sulfates lost after exhaustive 2-O sulfatase treatment (mass spectrometry) ([4]; MALDI-MS): Loss of a single sulfate

Molecule: CC(=O)N[C@H]1C(O)O[C@H](CO)[C@H](OS(=O)(=O)O)[C@@H]1O[C@@H]1OC(C(=O)O)=C[C@H](O)[C@H]1OS(=O)(=O)O (some centres unmarked) [ΔU2SGalNAc,4S]
- substrate desulfated (2-O sulfatase [3]): less than 10%

Molecule: [Cl][Mn][Cl] [MnCl2]
- effect of additive on enzyme activity (2-O sulfatase [1]): no substantive effect

Molecule: O=C(O)CN(CCN(CC(=O)O)CC(=O)O)CC(=O)O [EDTA]
- effect of additive on enzyme activity (2-O sulfatase [1]): largely unaffected
- inhibition of activity (2-O sulfatase [1]; preincubation of enzyme with 5 mM EDTA, trisulfated disaccharide substrate): approximately 10%

Molecule: [Cl-].[Cl-].[Mg+2] [MgCl2]
- effect of additive on enzyme activity (2-O sulfatase [1]): no substantive effect

Molecule: O=C(O)C1=C[C@H](O)[C@@H](OS(=O)(=O)O)[C@H](O[C@H]2[C@H](O)[C@@H](NS(=O)(=O)O)C(O)O[C@@H]2COS(=O)(=O)O)O1 (some centres unmarked) [ΔU2SHNS,6S]
- position specificity of desulfation by the recombinant sulfatase ([2]; ΔU2SHNS,6S versus ΔUHNS,6S, CE): only hydrolyzed a single sulfate, namely, the one found at the 2-OH position

Molecule: O[C@@H](CS)[C@@H](O)CS [DTT]
- effect of additive on enzyme activity (2-O sulfatase [1]): not inhibited

B1: 2-O sulfatase (2-O ΔN^1-24) (Pedobacter heparinus DSM 2366) (protein)
chain: QTSKVAASRPNIIIIMTDQQTADAMSNAGNKDLHTPAMDVLAANGTRFTRAYCAQPLCTPSRSAIFSGKMPHETGFTGNTPEKDGQWPDSVLMMGKIFKAGGYKTGYVGKWHLPVPVTKVAQHGFETIENTGMGDYTDAVTPSQCANFIKKNKDNPFLLVASFLNPHDICEWARGDNLKMDVLDAAPDTAFCPKLPANWPIPAFEPAIVREQQKVNPRTYPSVGWNESQWRKYRWAYNRLVEKVDNYMAMVLGSLKKYGIEDNTIIIFTSDHGDGYAAHEWNQKQILYEEAARIPFIISKIGQWKARTDDQLVCNGIDIIPTICGFAGIAKPVGLKGLDLSKRIANPSVKLRDTLVIETDFADNELLLGIKGRAVITKDFKYIVYDKGEIREQLFDLEKDAGEMDNLAVKPAYKKKLNEMRAYLKLWCKQHQDSFYALKK
- Km [5]: 4660 µM
- kcat [5]: 673 s⁻¹
- kcat/Km [5]: 144000 M⁻¹ s⁻¹
- Km [6]: 1060 µM
- kcat [6]: 911 s⁻¹
- kcat/Km [6]: 859000 M⁻¹ s⁻¹
- Km [7]: 515 µM
- kcat [7]: 1670 s⁻¹
- kcat/Km [7]: 3.25e+06 M⁻¹ s⁻¹
- Km [8]: 87 µM
- kcat [8]: 814 s⁻¹
- kcat/Km [8]: 9.36e+06 M⁻¹ s⁻¹

B2: 2-O sulfatase: recombinant F. heparinum 2-O sulfatase expressed in E. coli; experiments used the truncated enzyme with the histidine tag cleaved (protein, listed as Flavobacterium heparinum)
chain: MKMYKSKGWLIAMLILAGFGDAGAQTSKVAASRPNIIIIMTDQQTADAMSNAGNKDLHTPAMDVLAANGTRFTRAYCAQPLCTPSRSAIFSGKMPHETGFTGNTPEKDGQWPDSVLMMGKIFKAGGYKTGYVGKWHLPVPVTKVAQHGFETIENTGMGDYTDAVTPSQCANFNKKNKDNPFLLVASFLNPHDICEWARGDNLKMDVLDAAPDTAFCPKLPANWPIPAFEPAIVREQQKVNPRTYPSVGWNESQWRKYRWAYNRLVEKVDNYMAMVLGSLKKYGIEDNTIIIFTSDHGDGYAAHEWNQKQILYEEAARIPFIISKIGQWKARTDDQLVCNGIDIIPTICGFAGIAKPVGLKGLDLSKRIANPSVKLRDTLVIETDFADNELLLGIKGRAVITKDFKYIVYDKGEIREQLFDLEKDAGEMDNLAVKPAYKKKLNEMRAYLKLWCKQHQDSFYALKK
- pH activity range ([9]; 50 mM MES / MOPS, pH 5 to 8): 6.0-7.0
- pH optimum of activity (catalytic efficiency) ([9]; 50 mM MES / MOPS, pH 5 to 8): 6.5
- enzyme activity at 42° C. ([9]; 42° C.): compromised
- NaCl concentration of optimal activity ([9]; NaCl titration): approximately 50 mM
- activity at outlying pH values of 5 and 8 [9]: essentially no activity
- activity at outlying pH values of 5 and 8 ([9]; listed as flavobacterial sulfatase): essentially inactive
- temperature of optimal activity ([9]; varying reaction temperature): 30 °C
- activity after long-term storage, freezing and thawing [10]: without any subsequent loss of activity
